The results in this text go back to the supplement of paper PMC10567573.

B1: ADD1 (parent)
chain: FASDGDSGTCSPLRHSFQKQQREK
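Note: lentivirally expressed fusions sorted by FACS into six bins by GFP to DsRed ratio, PSI derived from sequencing read proportions per bin multiplied by bin number.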

In this data set the parent is B1. Kind of data set: protein stability index of a GFP-peptide fusion (GPS, HEK-293T) (PSI 1-6); higher = more stable. The settings on record: c terminus: a fixed tail appended.
Take FRSDGDSGTCSPLRHSFQKQQREK [A2R]: the protein stability index is 4.38.

For FYSDGDSGTCSPLRHSFQKQQREK [A2Y], the protein stability index came to 4.33.

With FHSDGDSGTCSPLRHSFQKQQREK [A2H], the protein stability index was found to be 2.76.

As to FLSDGDSGTCSPLRHSFQKQQREK [A2L], the protein stability index was determined as 3.7.

With FWSDGDSGTCSPLRHSFQKQQREK [A2W], the protein stability index turned out to be 4.27.

Turning to FASDGMSGTCSPLRHSFQKQQREK [D6M], the protein stability index worked out at 2.27.

On to FASDGYSGTCSPLRHSFQKQQREK [D6Y], for which the protein stability index stood at 1.7.

For FASDGLSGTCSPLRHSFQKQQREK [D6L], the protein stability index amounted to 2.6.

FASDGESGTCSPLRHSFQKQQREK [D6E]: the protein stability index came out at 3.98.

With FASDGTSGTCSPLRHSFQKQQREK [D6T], the protein stability index is 2.9.

For FASDGVSGTCSPLRHSFQKQQREK [D6V], the protein stability index turned out to be 3.13.

Consider FASDGCSGTCSPLRHSFQKQQREK [D6C], for which the protein stability index amounted to 3.01.

Consider FASDGGSGTCSPLRHSFQKQQREK [D6G], for which the protein stability index was 3.31.

For the variant FASDGWSGTCSPLRHSFQKQQREK [D6W], the protein stability index came to 3.8.

Take FASDGASGTCSPLRHSFQKQQREK [D6A]: the protein stability index worked out at 2.41.

As to FASDGKSGTCSPLRHSFQKQQREK [D6K], the protein stability index was found to be 2.8.

Turning to FASDGRSGTCSPLRHSFQKQQREK [D6R], the protein stability index was 3.44.

For the variant FASDGSSGTCSPLRHSFQKQQREK [D6S], the protein stability index was determined as 3.12.

In the case of FASDGQSGTCSPLRHSFQKQQREK [D6Q], the protein stability index turned out to be 3.17.

On to FASDGPSGTCSPLRHSFQKQQREK [D6P], for which the protein stability index came to 3.34.

Take FASDGHSGTCSPLRHSFQKQQREK [D6H]: the protein stability index turned out to be 2.29.

For the variant FASDGFSGTCSPLRHSFQKQQREK [D6F], the protein stability index was determined as 1.97.

For FASDGNSGTCSPLRHSFQKQQREK [D6N], the protein stability index worked out at 3.18.

For FASDGISGTCSPLRHSFQKQQREK [D6I], the protein stability index was 1.92.

FASMGDSGTCSPLRHSFQKQQREK [D4M]: the protein stability index was found to be 2.54.

Consider FASRGDSGTCSPLRHSFQKQQREK [D4R], for which the protein stability index is 2.81.

For FASGGDSGTCSPLRHSFQKQQREK [D4G], the protein stability index was 2.07.

On to FASPGDSGTCSPLRHSFQKQQREK [D4P], for which the protein stability index is 4.26.

As to FASYGDSGTCSPLRHSFQKQQREK [D4Y], the protein stability index worked out at 2.66.

As to FASAGDSGTCSPLRHSFQKQQREK [D4A], the protein stability index is 2.14.

For the variant FASTGDSGTCSPLRHSFQKQQREK [D4T], the protein stability index was 2.69.

FASVGDSGTCSPLRHSFQKQQREK [D4V]: the protein stability index turned out to be 2.44.

For FASFGDSGTCSPLRHSFQKQQREK [D4F], the protein stability index was 2.41.

As for FASQGDSGTCSPLRHSFQKQQREK [D4Q], the protein stability index was found to be 3.14.

Take FASHGDSGTCSPLRHSFQKQQREK [D4H]: the protein stability index turned out to be 3.08.

As for FASKGDSGTCSPLRHSFQKQQREK [D4K], the protein stability index was 2.51.

With FASIGDSGTCSPLRHSFQKQQREK [D4I], the protein stability index amounted to 2.54.

Consider FASCGDSGTCSPLRHSFQKQQREK [D4C], for which the protein stability index was 2.72.

On to FASLGDSGTCSPLRHSFQKQQREK [D4L], for which the protein stability index worked out at 3.48.

In the case of FASEGDSGTCSPLRHSFQKQQREK [D4E], the protein stability index turned out to be 4.37.

For FASNGDSGTCSPLRHSFQKQQREK [D4N], the protein stability index is 2.99.

FALDGDSGTCSPLRHSFQKQQREK [S3L]: the protein stability index came out at 3.51.

Consider FAIDGDSGTCSPLRHSFQKQQREK [S3I], for which the protein stability index stood at 3.88.

For FATDGDSGTCSPLRHSFQKQQREK [S3T], the protein stability index worked out at 3.99.

Consider FAVDGDSGTCSPLRHSFQKQQREK [S3V], for which the protein stability index amounted to 4.09.

As for FADDGDSGTCSPLRHSFQKQQREK [S3D], the protein stability index was 4.03.

As for FACDGDSGTCSPLRHSFQKQQREK [S3C], the protein stability index was found to be 3.02.

In the case of FAADGDSGTCSPLRHSFQKQQREK [S3A], the protein stability index worked out at 3.58.

As to FAYDGDSGTCSPLRHSFQKQQREK [S3Y], the protein stability index amounted to 1.93.

As to FAHDGDSGTCSPLRHSFQKQQREK [S3H], the protein stability index was found to be 4.05.

Consider FAGDGDSGTCSPLRHSFQKQQREK [S3G], for which the protein stability index worked out at 3.98.

Consider FAFDGDSGTCSPLRHSFQKQQREK [S3F], for which the protein stability index stood at 1.92.

For FAQDGDSGTCSPLRHSFQKQQREK [S3Q], the protein stability index worked out at 4.5.

FANDGDSGTCSPLRHSFQKQQREK [S3N]: the protein stability index came to 3.72.

Take FAMDGDSGTCSPLRHSFQKQQREK [S3M]: the protein stability index turned out to be 4.33.

Regarding FAWDGDSGTCSPLRHSFQKQQREK [S3W], the protein stability index was 2.72.

In the case of FAPDGDSGTCSPLRHSFQKQQREK [S3P], the protein stability index is 2.37.

On to FARDGDSGTCSPLRHSFQKQQREK [S3R], for which the protein stability index was 3.25.

With FAKDGDSGTCSPLRHSFQKQQREK [S3K], the protein stability index was determined as 3.75.

With NASDGDSGTCSPLRHSFQKQQREK [F1N], the protein stability index was found to be 5.19.

On to PASDGDSGTCSPLRHSFQKQQREK [F1P], for which the protein stability index turned out to be 5.76.

Consider DASDGDSGTCSPLRHSFQKQQREK [F1D], for which the protein stability index was found to be 4.91.

On to RASDGDSGTCSPLRHSFQKQQREK [F1R], for which the protein stability index is 5.07.

Consider IASDGDSGTCSPLRHSFQKQQREK [F1I], for which the protein stability index was 5.29.

As to WASDGDSGTCSPLRHSFQKQQREK [F1W], the protein stability index turned out to be 5.13.

On to GASDGDSGTCSPLRHSFQKQQREK [F1G], for which the protein stability index worked out at 4.99.

As to YASDGDSGTCSPLRHSFQKQQREK [F1Y], the protein stability index was 4.07.

For SASDGDSGTCSPLRHSFQKQQREK [F1S], the protein stability index worked out at 5.12.

With QASDGDSGTCSPLRHSFQKQQREK [F1Q], the protein stability index was 4.57.

Take EASDGDSGTCSPLRHSFQKQQREK [F1E]: the protein stability index was determined as 5.62.

Consider KASDGDSGTCSPLRHSFQKQQREK [F1K], for which the protein stability index was found to be 4.22.

For the variant MASDGDSGTCSPLRHSFQKQQREK [F1M], the protein stability index stood at 5.2.

With CASDGDSGTCSPLRHSFQKQQREK [F1C], the protein stability index turned out to be 4.17.

In the case of TASDGDSGTCSPLRHSFQKQQREK [F1T], the protein stability index turned out to be 5.55.

As to HASDGDSGTCSPLRHSFQKQQREK [F1H], the protein stability index came out at 5.18.

In the case of FASDKDSGTCSPLRHSFQKQQREK [G5K], the protein stability index came out at 3.76.

Consider FASDIDSGTCSPLRHSFQKQQREK [G5I], for which the protein stability index worked out at 3.68.

For FASDSDSGTCSPLRHSFQKQQREK [G5S], the protein stability index came out at 4.17.

For FASDFDSGTCSPLRHSFQKQQREK [G5F], the protein stability index stood at 4.01.

FASDLDSGTCSPLRHSFQKQQREK [G5L]: the protein stability index amounted to 3.83.

FASDWDSGTCSPLRHSFQKQQREK [G5W]: the protein stability index was 1.56.

On to FASDEDSGTCSPLRHSFQKQQREK [G5E], for which the protein stability index turned out to be 4.74.

For FASDQDSGTCSPLRHSFQKQQREK [G5Q], the protein stability index came to 4.66.

In the case of FASDNDSGTCSPLRHSFQKQQREK [G5N], the protein stability index was 4.29.

As for FASDPDSGTCSPLRHSFQKQQREK [G5P], the protein stability index amounted to 3.67.

On to FASDMDSGTCSPLRHSFQKQQREK [G5M], for which the protein stability index stood at 3.62.

In the case of FASDRDSGTCSPLRHSFQKQQREK [G5R], the protein stability index is 3.35.

FASDCDSGTCSPLRHSFQKQQREK [G5C]: the protein stability index was found to be 3.57.

For FASDYDSGTCSPLRHSFQKQQREK [G5Y], the protein stability index is 3.42.

Turning to FASDVDSGTCSPLRHSFQKQQREK [G5V], the protein stability index amounted to 3.94.

FASDTDSGTCSPLRHSFQKQQREK [G5T]: the protein stability index is 4.37.

FASDHDSGTCSPLRHSFQKQQREK [G5H]: the protein stability index turned out to be 3.43.

With FASDDDSGTCSPLRHSFQKQQREK [G5D], the protein stability index stood at 4.29.

Consider FASDADSGTCSPLRHSFQKQQREK [G5A], for which the protein stability index turned out to be 4.17.
